# T1: protein A–Sro7p (yeast (budding yeast), UniProt Q12038 1-1033)
# T1 sequence: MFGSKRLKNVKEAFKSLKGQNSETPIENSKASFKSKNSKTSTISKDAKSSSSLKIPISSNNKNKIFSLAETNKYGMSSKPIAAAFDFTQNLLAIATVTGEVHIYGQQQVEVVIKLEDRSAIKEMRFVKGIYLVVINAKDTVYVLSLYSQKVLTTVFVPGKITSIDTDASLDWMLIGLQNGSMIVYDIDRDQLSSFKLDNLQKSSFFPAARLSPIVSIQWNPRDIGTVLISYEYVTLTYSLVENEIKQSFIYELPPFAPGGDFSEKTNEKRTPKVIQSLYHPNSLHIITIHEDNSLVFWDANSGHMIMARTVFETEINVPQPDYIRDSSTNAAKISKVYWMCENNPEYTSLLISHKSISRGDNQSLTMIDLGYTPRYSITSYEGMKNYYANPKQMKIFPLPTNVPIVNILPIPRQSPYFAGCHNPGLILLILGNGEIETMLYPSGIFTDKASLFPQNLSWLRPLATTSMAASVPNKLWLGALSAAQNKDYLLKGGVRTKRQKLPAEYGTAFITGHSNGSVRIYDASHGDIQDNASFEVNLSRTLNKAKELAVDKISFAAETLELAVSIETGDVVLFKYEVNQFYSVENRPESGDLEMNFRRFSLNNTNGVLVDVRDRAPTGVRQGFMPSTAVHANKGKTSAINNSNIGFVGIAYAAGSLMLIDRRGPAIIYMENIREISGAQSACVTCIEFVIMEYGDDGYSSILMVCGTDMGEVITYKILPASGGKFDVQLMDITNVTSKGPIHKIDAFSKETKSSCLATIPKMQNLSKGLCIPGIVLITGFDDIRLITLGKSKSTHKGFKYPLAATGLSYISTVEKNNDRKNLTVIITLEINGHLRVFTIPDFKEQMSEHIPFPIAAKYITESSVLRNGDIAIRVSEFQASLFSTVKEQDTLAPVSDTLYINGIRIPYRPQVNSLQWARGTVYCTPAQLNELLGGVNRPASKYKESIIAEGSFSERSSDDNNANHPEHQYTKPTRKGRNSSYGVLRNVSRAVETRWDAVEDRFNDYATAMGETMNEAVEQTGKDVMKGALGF
# Target: T1, protein A–Sro7p
# Assay: pull-down
binder,measurement,value
Exo84p NH2-terminal domain (aa 1–320) GST fusion protein (domain or fragment) MVEFSLKKARNNWKHVKKSASSPAKQKTPPSPAKPKQKTKKNPYSDLKDPATSYTLPTINARERSRVATSMQRRLSIHNTNYAPPTLDYSMPLPDMPNMIVPNDNVDSSHNNSSFTTENESVSSKGPSNSLNLSTADLSLNDSSYNKVPARSAMRNTVNPSGSNDPFNNSTSLRKMLANPHFNAKDFVHDKLGNASAITIDKFTSNLTDLSIQVQEEVKLNINKSYNEIMTVNNDLNVAMLELKRVRANINDLNEVLDQCTKIAEKRLQLQDQIDQERQGNFNNVESHSNSPALLPPLKAGQNGNLMRRDRSSVLILEKF,Kd,46 ± 6 nM
